Measured values: article PMC4574351, “Tubulin cofactors and Arl2 are cage-like chaperones that regulate the soluble αβ-tubulin pool for microtubule dynamics” (eLife, 2015)
One block for each substance: values may come before it.

How the values were obtained:
[1] = target: TBC-DEG complex (TBCD-TBCE-Arl2 GTPase heterotrimer) (S. cerevisiae) (UniProt P40987)
[2] = target: TBC-DEG complex (TBCD-TBCE-Arl2 GTPase heterotrimer) (S. cerevisiae) (UniProt P40987); remark: listed apart in the source
[3] = target: TBC-DEG complex (TBCD-TBCE-Arl2 GTPase heterotrimer) (S. cerevisiae) (UniProt P40987); experiment: SEC-MALS; WTC-03S5 column; purified TBC-DEG (subunits co-expressed and co-purified), αβ-tubulin, TBCC and their complexes; ternary complex with GDP·ALFx (wild type) or GTP (Q73L)
[4] = target: TBC-DEG:αβ-tubulin complex (S. cerevisiae | porcine) (UniProt P40987)

TBC-DEG complex (TBCD-TBCE-Arl2 GTPase heterotrimer) (S. cerevisiae), sequence (P40987 whole entry, chain 1 of 3): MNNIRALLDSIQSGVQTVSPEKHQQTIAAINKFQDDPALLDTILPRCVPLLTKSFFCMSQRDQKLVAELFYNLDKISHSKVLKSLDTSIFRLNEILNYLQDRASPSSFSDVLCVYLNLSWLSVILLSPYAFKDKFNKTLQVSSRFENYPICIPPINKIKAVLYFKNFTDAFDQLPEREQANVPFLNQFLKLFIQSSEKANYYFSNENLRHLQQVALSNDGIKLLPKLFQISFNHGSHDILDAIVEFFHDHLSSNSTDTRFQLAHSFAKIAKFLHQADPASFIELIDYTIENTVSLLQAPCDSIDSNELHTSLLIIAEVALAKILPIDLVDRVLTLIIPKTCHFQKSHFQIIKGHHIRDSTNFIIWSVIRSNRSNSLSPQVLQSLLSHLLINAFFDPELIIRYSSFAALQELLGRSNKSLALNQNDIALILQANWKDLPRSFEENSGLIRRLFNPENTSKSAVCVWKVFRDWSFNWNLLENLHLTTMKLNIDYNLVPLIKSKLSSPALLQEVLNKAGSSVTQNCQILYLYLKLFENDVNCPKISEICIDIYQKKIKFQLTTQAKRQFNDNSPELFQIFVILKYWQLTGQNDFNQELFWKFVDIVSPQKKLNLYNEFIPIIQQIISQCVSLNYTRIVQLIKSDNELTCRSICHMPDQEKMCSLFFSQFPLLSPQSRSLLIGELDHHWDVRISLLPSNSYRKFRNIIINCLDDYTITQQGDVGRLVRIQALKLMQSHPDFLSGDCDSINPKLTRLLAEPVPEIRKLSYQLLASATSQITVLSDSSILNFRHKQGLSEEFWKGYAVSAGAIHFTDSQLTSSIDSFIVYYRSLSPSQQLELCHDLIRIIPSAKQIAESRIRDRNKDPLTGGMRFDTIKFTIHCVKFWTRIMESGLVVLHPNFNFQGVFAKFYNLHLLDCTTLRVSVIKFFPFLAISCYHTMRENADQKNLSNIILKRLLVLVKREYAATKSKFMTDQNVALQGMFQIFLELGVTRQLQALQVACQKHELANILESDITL
TBC-DEG complex (TBCD-TBCE-Arl2 GTPase heterotrimer) (S. cerevisiae), sequence (P39937 whole entry, chain 2 of 3, further chain): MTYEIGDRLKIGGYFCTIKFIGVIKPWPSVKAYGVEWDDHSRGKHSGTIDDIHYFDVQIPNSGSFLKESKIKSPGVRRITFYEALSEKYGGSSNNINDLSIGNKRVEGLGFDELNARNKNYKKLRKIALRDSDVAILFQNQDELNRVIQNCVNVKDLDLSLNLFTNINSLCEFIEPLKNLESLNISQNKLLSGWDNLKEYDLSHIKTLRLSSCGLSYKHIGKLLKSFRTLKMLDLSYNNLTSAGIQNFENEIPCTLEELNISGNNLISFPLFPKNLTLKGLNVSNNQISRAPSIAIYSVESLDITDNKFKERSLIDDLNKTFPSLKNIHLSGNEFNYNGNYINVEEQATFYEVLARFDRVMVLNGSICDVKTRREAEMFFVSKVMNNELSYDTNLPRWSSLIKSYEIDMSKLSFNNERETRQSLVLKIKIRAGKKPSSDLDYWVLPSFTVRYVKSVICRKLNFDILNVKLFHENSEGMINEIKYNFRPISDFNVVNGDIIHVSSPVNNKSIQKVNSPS
TBC-DEG complex (TBCD-TBCE-Arl2 GTPase heterotrimer) (S. cerevisiae), sequence (P39110 whole entry, chain 3 of 3, further chain): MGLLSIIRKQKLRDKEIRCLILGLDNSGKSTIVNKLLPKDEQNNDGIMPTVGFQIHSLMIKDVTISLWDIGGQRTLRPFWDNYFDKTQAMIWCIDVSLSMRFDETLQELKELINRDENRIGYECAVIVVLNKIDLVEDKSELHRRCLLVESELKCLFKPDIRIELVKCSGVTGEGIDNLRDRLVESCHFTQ

- steady-state GTP hydrolysis kcat (malachite green), 1 μM TBC-DEG:1 μM αβ-tub [1]: 6670 M⁻¹ s⁻¹
- steady-state GTP hydrolysis kcat, 1 μM TBC-DEG and 1 μM TBCC with αβ-tubulin titrated 0.25-3.0 μM (kcat 1.10 to 2.77) [1]: 46200 M⁻¹ s⁻¹
- steady-state GTP hydrolysis kcat at 3 μM αβ-tubulin, 1:3:1 TBCC:αβ-tubulin:TBC-DEG (number as in the text) [2]: 0.05 s⁻¹
- stoichiometry N [3]: 1
Substance: porcine brain αβ-tubulin dimer (from UniProt P02550 1-451; P02554 1-445) (complex)

- steady-state GTP hydrolysis kcat, 1 μM TBC-DEG:1 μM TBCC-Δ233-245:1 μM αβ-tub [4]: 5670 M⁻¹ s⁻¹
Substance: TBCC loop-deleted mutant Δ233-245 (from UniProt P46670 1-232; P46670 246-267) (natural protein)

- steady-state GTP hydrolysis kcat (malachite green), 1 μM TBC-DEG:1 μM TBCC [1]: 12800 M⁻¹ s⁻¹
Substance: Tubulin cofactor C (TBCC), S. cerevisiae Cin2p (from UniProt P46670 1-268) (natural protein)
